Assay results from publication PMC11819540, “A new method for the reproducible development of aptamers (Neomers)”.

B1: IL-6-6449 (ssDNA)
DNA: TGTGTATAAGTCGCGAGGTTTGAATGCGAACCATCGGCGCCAACAAAACATTCAAACAGAAATCTACTAGTCAC
modifications: thiol

molecular target: Interleukin 6 (IL-6) (Homo sapiens, UniProt P05231 30-212); test: SPRi; SPRi running buffer: 400 mM 6-aminohexanoic acid, 2 mM TETA, 100 mM NaCl, pH 5.7 ± 0.1, 25 °C; aptamers immobilized on gold, protein in flow at 50 µL/min; conditions: protein: commercial
Sequence (P05231 30-212): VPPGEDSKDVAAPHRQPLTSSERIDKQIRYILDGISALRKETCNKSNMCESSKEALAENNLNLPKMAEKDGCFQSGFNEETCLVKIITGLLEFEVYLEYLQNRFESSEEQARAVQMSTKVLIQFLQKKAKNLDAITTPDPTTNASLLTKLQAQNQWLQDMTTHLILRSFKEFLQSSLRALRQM

| Binder | Kd [nM] |
| --- | --- |
| GTCCTGAGGTGTGAATACAAACCATCGG (ssDNA, thiol) [IL-6-4202.1] | 73.2 |
| CAAGAGGGTTGAATTGCAACCATCGGC (ssDNA, thiol) [IL-6-7326.1] | 27 |
| B1 | 32.1 |
